Values of other authors in publication PMC13681993.

Target: GAB1 pY627 (Homo sapiens) (UniProt Q13480)
Assay: fluorescence polarization

Substance: PTPN11 N-SH2 (from UniProt Q06124)
- Kd: 287 nM
